Measurements: patent publication US20210260113A1, “DEVICES, METHODS, COMPOSITIONS AND SYSTEMS FOR THE TREATMENT OF AGING AND AGE-RELATED DISORDERS” (Gero LLC, priority 2018, published 2021)
No end group written: not given here.

biological target: T1, NBL1 (AA 1-180) protein (FcTag) (Homo sapiens, UniProt P41271); experiment: PEPperCHIP Discovery Microarray screening of cyclic peptide binders; format: binding; conditions: cyclic peptides of common structure S1 with the given SEQ; NBL1 at 10 μg/ml
T1 construct: NBL1 (AA 1-180) protein (FcTag); purchased SinoBiological (via AntibodiesOnline) BIN2002229
T1 sequence (P41271 17-180): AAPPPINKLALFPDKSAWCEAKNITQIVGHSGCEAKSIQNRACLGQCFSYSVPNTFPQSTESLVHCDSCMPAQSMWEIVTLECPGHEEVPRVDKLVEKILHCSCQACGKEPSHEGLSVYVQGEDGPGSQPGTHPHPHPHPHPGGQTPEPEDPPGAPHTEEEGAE
From the text: The peptide target binder discovery screening was done with PEPperCHIP® Discovery Microarrays with 36,040 random peptides with alength of 12 amino acids printed in duplicate (72,080 peptide spots). After peptide synthesis, all peptides were cyclized via a thioetherlinkage between a C-terminal cysteine side chain and an appropriately modified N-terminus. The PEPperCHIP® Discovery Microarrays contained additional myc(EQKLISEEDL, 415 spots) and HA (YPYDVPDYAG, 420 spots) control peptides as specified in the peptide maps of the microarray data files.
Samples: NBL1 (AA 1-180) protein (FcTag) (SinoBiological, AntibodiesOnline BIN2002229) Washing Buffer: PBS, pH 7.4 with 0.005% Tween 20 (2×10 sec after each assay) Blocking Buffer: Rockland blocking buffer MB-070 (30 min before the first assay) Incubation Buffer: Washing buffer with 1% blocking buffer Assay Conditions: Protein concentrations of […] in incubation buffer; incubation for 16 h at 4° C. and shaking at 140 rpm Secondary Antibodies: Mouse natriuretic peptides B DyLight800 antibody (1:5000; Hytest, AntibodiesOnline product ABIN263370), goat anti-human IgG (Fc) DyLight680 (1:5000); 45 min staining in incubation buffer at RT Control Antibodies: Mouse monoclonal anti-HA (12CA5) DyLight680(1:2000), mouse monoclonal anti-HA (12CA5) DyLight800 (1:2000); 45 min staining in incubation buffer at RT Scanner: LI-COR Odyssey Imaging System; scanning offset 0.65 mm, resolution 21 μm, scanning intensities of 7/7 (red=700 nm/green=800 nm)
After 15 min pre-swelling in washing buffer and 30 min in blocking buffer, two PEPperCHIP® Discovery Microarrays were initially incubated with the secondary antibodies mouse natriuretic peptides B DyLight800 (1:5000) and goat anti-human IgG (Fc) DyLight680 (1:5000) as well as with the control antibodies in incubation buffer to analyze background interactions with the 36,040 different random cyclic constrained peptides of the microarrays. Subsequent incubation of the PEPperCHIP® Discovery Microarrays was done with target proteins NBL1 at concentrations of 1 μg/ml and 10 μg/ml in incubation buffer and followed by staining with the secondary antibodies as well as read-out with a LI-COR Odyssey Imaging System at scanning intensity of 7/7 (red/green). The additional HA peptides framing the peptide microarrays were simultaneously stained as internal quality control to confirm the assay quality and the peptide microarray integrity.
A software algorithm breaks down fluorescence intensities of each spot into raw, foreground and background signal, and calculates averaged median foreground intensities and spot-to-spot deviations of spot duplicates. We tolerated a maximum spot-to-spot deviation of 40%, otherwise the corresponding intensity value was zeroed. Based on averaged median foreground intensities, an intensity map was generated and interactions in the peptide map highlighted by an intensity color code with red(NBL1 for high and white for low spot intensities.
To identify the top interactions of the target proteins, the averaged and corrected intensity values were sorted by decreasing spot intensities. We further plotted averaged spot intensities of all assays against the microarray content from left on top to right on bottom of the chip to visualize overall spot intensities and signal-to-noise ratios. For a better data overview, the baselines of the intensity plots were leveled and main responses annotated next to the corresponding signal. The intensity plots were correlated with peptide and intensity maps as well as with visual inspection of the microarray scans to identify peptides that interacted with target proteins NBL1.

Sequence	intensity values, 10 μg/ml
DMAARCVCKRRR	554
DSRKFFYRGNRR	328
FDWRISQRMRRR	448
FPQSRGRGKLWR	195
GRHLPEASKRFR	192
HTWPYALTQKRR	176.5
IYFYSCSVPGMY	233
KQRSKRMASMKLF	249
KVRALRDISYRR	190.5
LGPAACFTSEPV	212.5
NCYHMVYYLIIL	185
RFNHVTCRTFKR	301.5
RFTYSPTQRAYR	186
SQKMLRRGGMIRK	236.5
SRHNYSHWFYRR	198
VDFGGGWVCFCP	189
VHQCRASRYPRI	235.5
WVARDHVNHNRR (not fully specified (C-terminus, bridges); also: cyclized via thioether between C-terminal Cys side chain and modified N-terminus)	189
YHATGVRWRFLR (not fully specified (C-terminus, bridges); also: cyclized via thioether between C-terminal Cys side chain and modified N-terminus)	445
YHHKPQRQNRGR (not fully specified (C-terminus, bridges); also: cyclized via thioether between C-terminal Cys side chain and modified N-terminus)	283
YMPSNCCWWWRR (not fully specified (C-terminus, bridges); also: cyclized via thioether between C-terminal Cys side chain and modified N-terminus)	197
YWHKKLYYMRYR (not fully specified (C-terminus, bridges); also: cyclized via thioether between C-terminal Cys side chain and modified N-terminus)	200.5

Further lines, results first:

intensity values, 10 μg/ml	Sequence
317.5	ARMRQTHRPVYR
338	ARQSHRRPGGKR
290	CHCIHFTHRRLR
216	DFKQLLLPGRKR
174.5	FPMCQKVPFVRR
215	FWFHLKYWAWRR
214	GDRGCFFIVTFI
172	IRHSDRVDRYSR
181	KVALFLANRLFR
193.5	LFENCANVCIGL
177	LRLFKISRNFPR
213	LRNVVFIWHIRYR
185	LVMWHRHFALRR
251.5	MFFRPFKGHGRR
210	NKQMNHPPRRHR
179.5	RHGTRYHSRLFR
294.5	RKKDPRAYDRFR
205	RPRHVFKLYGRL
182.5	RQNANKAWQKRR
187	RRRAQPSPMRHK
234	RYNQSIRVIIGR
489	TLRCHRHRFR
175	TYDNYIRYFRIR
235	WVRIRLSRRQFR (not fully specified (C-terminus, bridges); also: cyclized via thioether between C-terminal Cys side chain and modified N-terminus)
185	YGSHYYWNHLRR (not fully specified (C-terminus, bridges); also: cyclized via thioether between C-terminal Cys side chain and modified N-terminus)
323	YWTKGLLWRNRR (not fully specified (C-terminus, bridges); also: cyclized via thioether between C-terminal Cys side chain and modified N-terminus)
452	YYRIHHQRRGRS (not fully specified (C-terminus, bridges); also: cyclized via thioether between C-terminal Cys side chain and modified N-terminus)
